The record followed here is publication PMC6321462.

This assay deals with actin from rabbit skeletal muscle (G-actin polymerized to F-actin) (rabbit) (UniProt P68135).

MBP-DRR1 dC (recombinant murine DRR1 lacking the C-terminal domain, MBP fusion) (domain or fragment), sequence (Q78TU8 whole entry, the tested form may be a part): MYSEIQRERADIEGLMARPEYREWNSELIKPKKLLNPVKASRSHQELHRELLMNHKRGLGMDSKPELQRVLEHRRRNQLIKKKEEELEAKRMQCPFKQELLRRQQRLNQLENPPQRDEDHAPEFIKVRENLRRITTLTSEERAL

On to “MBP-DRR1 dC (recombinant murine DRR1 lacking the C-terminal domain, MBP fusion) (domain or fragment)”, for which the barbed end filament elongation rate in the presence of profilin (1.5 µM), TIRF microscopy, R = 0.5 was 36 % of control.
